Results taken from patent US20230078601A1 (CLEVELAND CLINIC FOUNDATION, published 2023).

Assays:
[1] = biological target: T1, mouse AMHR2 (in lysate of a normal young C57BL/6 female mouse ovary) (mouse, UniProt Q8K592 16-568, limits assumed); test: Western blot of mouse ovary lysate
T1 construct: Denatured ovary lysate on a Western blot; also called mouse AMHR2-ED
T1 sequence (looked up): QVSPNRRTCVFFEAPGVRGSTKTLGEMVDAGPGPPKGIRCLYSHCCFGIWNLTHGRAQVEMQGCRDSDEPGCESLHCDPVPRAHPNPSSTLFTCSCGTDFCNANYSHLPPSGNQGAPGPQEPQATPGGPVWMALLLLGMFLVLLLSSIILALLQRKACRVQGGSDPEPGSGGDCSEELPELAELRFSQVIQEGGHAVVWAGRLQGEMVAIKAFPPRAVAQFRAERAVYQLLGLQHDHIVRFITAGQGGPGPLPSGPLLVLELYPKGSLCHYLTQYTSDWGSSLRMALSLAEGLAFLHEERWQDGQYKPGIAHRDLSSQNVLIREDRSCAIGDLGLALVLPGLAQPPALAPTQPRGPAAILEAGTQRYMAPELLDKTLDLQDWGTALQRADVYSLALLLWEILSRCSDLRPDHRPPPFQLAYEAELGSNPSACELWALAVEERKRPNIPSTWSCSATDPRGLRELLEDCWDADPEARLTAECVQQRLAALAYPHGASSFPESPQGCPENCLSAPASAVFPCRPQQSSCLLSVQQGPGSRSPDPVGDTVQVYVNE
Description: The suspension was centrifuged to remove debris, the lysates were washed in PBS, and 25 μg of protein from each lysate was loaded into each lane of denaturing SDS-PAGE gels (Bio-Rad). Gels were transferred onto polyvinylidene difluoride (PVDF) membranes (Bio-Rad) and treated with the 4D12G1 mAb at 0.001 μg/ml as primary antibody. In FIG. 2D, a commercially available AMHR2-ED mAb (#sc-377413; Santa Cruz Biotechnology, Dallas, Tex.) at 1.0 μg/ml was used instead of the 4D12G1 mAb as the primary antibody for detecting AMHR2-ED. Western blots of lysates were used to detect capase-3-mediated cleavage of poly (ADP-ribose) polymerase-1 (PARP-1) in AMHR2-OVCAR8 cells treated with increasing concentrations of 4D12G1 mAb (1.0-10 μg/ml) by using a primary rabbit antibody for detection of the intact 116 kDa PARP-1 and its 89 kDa cleaved variant associated with apoptosis (Cell Signaling Technology, Danvers, Mass.). Secondary detection antibodies included treatment with a 1:10,000 dilution of an HRP-conjugated rabbit anti-mouse IgG (MilliporeSigma) or a 1:5,000 dilution of an HRP-conjugated goat anti-rabbit antibody (MilliporeSigma). […]

[2] = biological target: T2, AMHR2-ED 22-26 5-mer peptide (LGELL) (human); test: SPOT peptide array, 4D12G1 at 1.0 ug/ml, chemiluminescence
T2 construct: Synthesised on a cellulose membrane (SPOT peptide array); also called 22LGELL26; Residues 22-26 of AMHR2-ED and 39-43 of AMHR2
T2 peptide: LGELL
Description: The AMHR2-ED binding sequence of the 4D12G1 mAb and the critical AMHR2-ED residues for such binding were confirmed by SPOT peptide arrays. Peptides spanning the AMHR2-ED 9-40 immunoreactive region and ranging from 4-16-mers in length were synthesized >90% pure on cellulose membranes (JPT Peptide Technologies, Berlin, Germany), treated overnight with blocking buffer (Thermo Fisher), followed by treatment with the 4D12G1 mAb at 1.0 μg/ml for 3 hours at room temperature, followed by three washes with PBS containing 0.01% Tween-20 (Bio-Rad). The membranes were then treated with a 1:10,000 dilution of an HRP-conjugated rabbit anti-mouse IgG (MilliporeSigma) followed by three washes with PBS containing 0.01% Tween-20 (Bio-Rad). Bound antibody was detected using the HyGLO chemiluminescence system (Thomas Scientific).
An overlapping series of 16-mer peptides spanning the entire 132 amino acid sequence of human AMHR2-ED (FIG. 3A) with moving single amino acid shifts were plated for direct ELISA testing using the 4D12G1 mAb as primary antibody. […] To determine amino acids recognized by the 4D12G1 mAb, an overlapping series of peptides spanning the immunoreactive sequence comprising AMHR2-ED 13-30 were synthesized with alanine substitutions at each N-terminal residue or with glycine substitutions for any native N-terminal alanine. […] Bound antibody was detected by chemiluminescence.

B1: 4D12G1 mAb (antibody, IgG1, V domains shown)
VH: DVKLVESGGGLVKLGGSLKLSCAASGFTFSRYFMSWVRQTPEKRLELVAAINSDGGRTYYPDTVKGRFTISRDNAKNTLYLQMSSLKSEDTALYYCTRHIYSYYEDYFDYWGQGTTLTVSS
VL: DVVMTQTPLSLPVSLGDQASISCRSSQSLVHSNGNTYLHWYLQKPGQSPKLLIYKVSKRFSGVPDRFSGSGSGTDFTLKISRVEAEDLGVYFCSQSTHVYTFGGGTKLEIK
notes: also called 4D12G1 IgG1 mAb
B1: binds [1]; binds [2].
